Laboratory results: PMC7610652 (Nature structural & molecular biology, 2021)

Experiments:
[1] = target: RPABC5, subunit of human RNA polymerase III (human, UniProt P62875 1-67); assay: cryo-EM structure
[2] = target: T1, RPC2, subunit of human RNA polymerase III (human, UniProt Q9NW08 1-1133); assay: cryo-EM structure
T1 sequence: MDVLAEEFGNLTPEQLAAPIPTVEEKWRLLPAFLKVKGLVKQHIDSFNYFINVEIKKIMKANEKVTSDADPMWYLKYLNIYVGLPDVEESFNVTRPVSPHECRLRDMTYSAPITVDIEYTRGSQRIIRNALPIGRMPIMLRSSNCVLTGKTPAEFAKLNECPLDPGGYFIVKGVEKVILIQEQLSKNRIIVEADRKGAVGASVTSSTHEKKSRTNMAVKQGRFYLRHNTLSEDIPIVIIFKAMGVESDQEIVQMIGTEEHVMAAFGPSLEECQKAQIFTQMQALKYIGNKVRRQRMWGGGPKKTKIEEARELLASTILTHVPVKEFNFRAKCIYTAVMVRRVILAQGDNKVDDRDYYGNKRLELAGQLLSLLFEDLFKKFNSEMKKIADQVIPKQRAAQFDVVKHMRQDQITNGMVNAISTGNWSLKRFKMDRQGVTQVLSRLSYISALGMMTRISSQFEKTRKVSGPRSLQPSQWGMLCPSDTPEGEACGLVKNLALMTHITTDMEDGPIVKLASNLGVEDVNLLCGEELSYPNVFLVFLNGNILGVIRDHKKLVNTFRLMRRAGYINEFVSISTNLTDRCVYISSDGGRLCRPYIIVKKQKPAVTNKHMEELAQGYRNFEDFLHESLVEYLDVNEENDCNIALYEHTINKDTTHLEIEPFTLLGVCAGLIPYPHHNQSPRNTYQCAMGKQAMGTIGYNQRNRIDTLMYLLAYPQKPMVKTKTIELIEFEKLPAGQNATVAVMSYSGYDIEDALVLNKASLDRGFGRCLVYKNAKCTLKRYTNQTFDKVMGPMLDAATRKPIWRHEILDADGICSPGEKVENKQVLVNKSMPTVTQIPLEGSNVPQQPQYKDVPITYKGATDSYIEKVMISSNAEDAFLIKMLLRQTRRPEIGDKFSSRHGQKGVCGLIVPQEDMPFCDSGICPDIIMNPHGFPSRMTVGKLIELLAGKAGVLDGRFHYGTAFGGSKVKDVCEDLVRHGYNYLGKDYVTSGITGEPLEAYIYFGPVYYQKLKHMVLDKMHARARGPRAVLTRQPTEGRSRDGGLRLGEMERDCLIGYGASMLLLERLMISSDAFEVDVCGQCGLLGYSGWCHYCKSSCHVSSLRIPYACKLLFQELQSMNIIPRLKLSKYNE

binding result [1]: binds
binding result [2]: binds
B1: RPC5, subunit of the human RNA polymerase III heterodimer (natural protein)
chain: MANEEDDPVVQEIDVYLAKSLAEKLYLFQYPVRPASMTYDDIPHLSAKIKPKQQKVELEMAIDTLNPNYCRSKGEQIALNVDGACADETSTYSSKLMDKQTFCSSQTTSNTSRYAAALYRQGELHLTPLHGILQLRPSFSYLDKADAKHREREAANEAGDSSQDEAEDDVKQITVRFSRPESEQARQRRVQSYEFLQKKHAEEPWVHLHYYGLRDSRSEHERQYLLCPGSSGVENTELVKSPSEYLMMLMPPSQEEEKDKPVAPSNVLSMAQLRTLPLADQIKILMKNVKVMPFANLMSLLGPSIDSVAVLRGIQKVAMLVQGNWVVKSDILYPKDSSSPHSGVPAEVLCRGRDFVMWKFTQSRWVVRKEVATVTKLCAEDVKDFLEHMAVVRINKGWEFILPYDGEFIKKHPDVVQRQHMLWTGIQAKLEKVYNLVKETMPKKPDAQSGPAGLVCGDQRIQVAKTKAQQNHALLERELQRRKEQLRVPAVPPGVRIKEEPVSEEGEEDEEQEAEEEPMDTSPSGLHSKLANGLPLGRAAGTDSFNGHPPQGCASTPVARELKAFVEATFQRQFVLTLSELKRLFNLHLASLPPGHTLFSGISDRMLQDTVLAAGCKQILVPFPPQTAASPDEQKVFALWESGDMSDQHRQVLLEIFSKNYRVRRNMIQSRLTQECGEDLSKQEVDKVLKDCCVSYGGMWYLKGTVQS
